± gives the uncertainty stated by the source.

This data set in a line: amyloid nucleation score (Sup35N fusion, yeast selection) (log enrichment); library NNK2; higher = more nucleation; inactive = no reads after selection. Put shortly:
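After 24 hours of induction with 100 μM copper sulfate, psi-negative yeast expressing peptides of 20 random codons fused to Sup35N were grown for 7 days at 30°C on medium lacking adenine and uracil. Input and output plasmid inserts were sequenced with Illumina, and sequences with under 100 input reads were discarded. Scores for nucleation are the DiMSum log enrichment of output over input reads, centred on the mode score of non-aggregating sequences.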
In the case of VSHSSIWSGSLKKSVSCDHV, the amyloid nucleation score result is “inactive”.

In turn, VSISCSVWIMGRVYLIRYSG returned an amyloid nucleation score of -1.36 ± 0.78.

Take VSKMGYRDALVAREGLCGVV: the amyloid nucleation score came out at 0.072 ± 0.38.

For the substance VSLLWYHFGWLLDCFWYRWS, the amyloid nucleation score is 0.429 ± 0.8.

Turning to VSMGNGARH, the amyloid nucleation score was 0.194 ± 0.2.

With VSNLTQVAEVRQSNGGVFCG, the amyloid nucleation score stood at 0.189 ± 0.39.

VSRFYCKYYSAQWIRYGRAC: the amyloid nucleation score was -0.544 ± 0.36.

VSRGGKHGVQIT: the amyloid nucleation score result is “inactive”.

With VSSAHYV, the amyloid nucleation score is -0.657 ± 0.76.

Consider VSSLFIEDFFFNRTSVMYIG, for which the amyloid nucleation score was found to be 0.103 ± 0.25.

Consider VSSPCGRFSFNNNGGKVWTW, for which the amyloid nucleation score is -0.111 ± 0.61.

Substance VSSVRIILLAWWSMRTLYFD had an amyloid nucleation score of -2.43 ± 0.78.

For the substance VSTRSLF, the amyloid nucleation score result was “inactive”.

VSVKRGAPKVGSTGPVYTCG displayed an amyloid nucleation score of -0.306 ± 0.5.

In turn, VSWAVGQGWTVRSSPRVCGE displayed an amyloid nucleation score of 0.267 ± 0.42.

In the case of VSWDISMNEVADWVVGAGGA, the amyloid nucleation score was 1.13 ± 0.42.

Turning to VSYEVVINRYFGKHCCGTII, the amyloid nucleation score result was “inactive”.

Substance VTALDLMNGIWSRNMPGEVV returned an amyloid nucleation score of -0.18 ± 0.19.

Turning to VTALDMFVLSWGCGWGMN, the amyloid nucleation score came out at 3.06 ± 0.17.

As to VTCGV, the amyloid nucleation score is 0.179 ± 0.56.

The substance VTFYLGSSE registered an amyloid nucleation score of 0.155 ± 1.1.

Substance VTGTYFLVLITCA had an amyloid nucleation score of 4.27 ± 0.065.

For VTIRDLFYGHVRQPDSQVVI, the amyloid nucleation score amounted to 0.883 ± 0.52.

In turn, VTKDCNMRMKCTSSIIFLKN registered an amyloid nucleation score of -0.459 ± 1.1.

For the substance VTNSSMQMSSWADPSVKSGM, the amyloid nucleation score is 0.032 ± 0.32.

VTTVRSPILLTLRTVPF displayed an amyloid nucleation score of 0.425 ± 0.38.

Regarding VVELKELAYQGNGIVLIMED, the amyloid nucleation score is -0.066 ± 0.41.

Turning to VVFCGVFLCDCDNGESSSRY, the amyloid nucleation score is 8.989 ± 0.071.

The substance VVFRLRSNRGNVVPRSWAWC gave an amyloid nucleation score of 1.71 ± 0.13.

Consider VVGFF, for which the amyloid nucleation score result was “inactive”.

Turning to VVGSFFCQNMKHLYRELRQS, the amyloid nucleation score result was “inactive”.

VVHGIETIIVDPDRALVGDG returned an amyloid nucleation score of -0.356 ± 0.32.

VVIQPGTYFYLCNIFA yielded an amyloid nucleation score of -1.58 ± 0.78.

Consider VVLFWLNCRRVYFLGSKYRA, for which the amyloid nucleation score came to 0.331 ± 0.8.

The substance VVLGLDNPIHLIFLKDVNYC yielded an amyloid nucleation score of -1.5 ± 1.1.

In turn, VVMVVCMV showed an amyloid nucleation score of 0.36 ± 0.62.

For VVNVVSGYGAE, the amyloid nucleation score is 0.619 ± 0.19.

In turn, VVPIGETR had an amyloid nucleation score of 1.49 ± 0.47.

VVRQTVSDCVQASTRSQLLK showed an amyloid nucleation score of 0.522 ± 0.35.

Consider VVRYLYRWTTVVGLHGGSHN, for which the amyloid nucleation score was -0.786 ± 0.43.

VVSILRLDSVGRVVIEAWVR gave an amyloid nucleation score of 0.223 ± 0.77.

VVSINVQVDHVCYAFSQVSQ gave an amyloid nucleation score of 8.211 ± 0.062.

With VVSITNINNMSSMRSEPEYK, the amyloid nucleation score worked out at 6.98 ± 0.078.

With VVSKVLNKYF, the amyloid nucleation score stood at 0.189 ± 0.65.

Substance VVSRVECALAWVRNDIEALT displayed an amyloid nucleation score of 0.343 ± 0.8.

In turn, VVSTESVNVI returned an amyloid nucleation score of 0.889 ± 0.27.

The substance VVVSRTITLSTSYEFYIVKY had an amyloid nucleation score of 0.798 ± 0.32.

As for VVYWRWTTPDLRVKAHGLFF, the amyloid nucleation score stood at 0.438 ± 0.5.

As for VWAHL, the amyloid nucleation score is -0.191 ± 0.35.

Take VWEGTGPLEICWFCWGEW: the amyloid nucleation score came to 2.5 ± 0.17.

Regarding VWFMEVNVKYECTPSYEGRL, the amyloid nucleation score was determined as 3.81 ± 0.073.

For VWGLLTIPCVSQIRCRCGFS, the amyloid nucleation score was 0.749 ± 0.53.

Turning to VWGRMLRVGFGEV, the amyloid nucleation score was found to be 0.066 ± 0.63.

VWHVDTAVLTRA came in with an amyloid nucleation score of 1.08 ± 0.41.

VWIFSSSIKTTLYKHLLSNT: the amyloid nucleation score is -0.539 ± 0.74.

As for VWLNHLTTIYYCNHKLCLLL, the amyloid nucleation score worked out at 2.17 ± 0.22.

The substance VWLYCSEQDRCVMLASRELL had an amyloid nucleation score of 0.465 ± 0.34.

VWNYISLNEAM showed an amyloid nucleation score of -0.946 ± 0.55.

VWPLFAEDGCNANGVVNQVS displayed an amyloid nucleation score of 0.955 ± 0.22.

With VWPTMCTVFAMF, the amyloid nucleation score was 2.51 ± 0.065.

In the case of VWVKRVDASSCAVS, the amyloid nucleation score came out at 1.26 ± 0.38.

Take VWWSEVTAVSNCQRVSYARP: the amyloid nucleation score came out at 2.94 ± 0.075.

The substance VYCIVRMYIALWCYVLDYVE registered an amyloid nucleation score of 0.34 ± 0.36.

VYFLMLDY had an amyloid nucleation score of -0.526 ± 0.49.

Take VYFSQDQFSYYFTRVESVEV: the amyloid nucleation score was -0.191 ± 0.45.

The substance VYFTSVMNSCVYVSAVCEMC came in with an amyloid nucleation score of 6.953 ± 0.046.

VYHDHLKLWSKGTSRVAWAL: the amyloid nucleation score worked out at 2.34 ± 0.16.

On to VYHLLFSGC, for which the amyloid nucleation score is 0.219 ± 0.33.

With VYIYSGFVVSWLRFFGVMRP, the amyloid nucleation score was -0.394 ± 1.1.

VYMFCRGGTHEAYFFHTGLC registered an amyloid nucleation score of -0.256 ± 0.79.

In turn, VYMKKINSFITMMSVHGNCS registered an amyloid nucleation score of 5.11 ± 0.068.

The substance VYMPYHLSYMLEPRQNSVLS had an amyloid nucleation score of -0.744 ± 1.1.

As for VYNFSFSNSNVK, the amyloid nucleation score worked out at 6.669 ± 0.047.

VYPDSIVGFEADVNGCVVVP yielded an amyloid nucleation score of 0.713 ± 0.38.

In turn, VYRYIVIYPFVKWHKTDRFC returned an amyloid nucleation score of -0.805 ± 0.33.

VYSPFLICI showed an amyloid nucleation score of 0.174 ± 1.

For the substance VYSRDFRIQ, the amyloid nucleation score was -1.1 ± 0.54.

VYTCSIFYLGLVYRHISDSS: the amyloid nucleation score result is “inactive”.

In turn, VYVSYVAIFLPEPLVCDNVE registered an amyloid nucleation score of 7.192 ± 0.04.

As for WASIV, the amyloid nucleation score amounted to 0.049 ± 0.8.

Consider WASWRSYSMWLDLLCFRSRG, for which the amyloid nucleation score is 0.155 ± 0.33.

On to WAWGCWVHSESVAWSCMCKA, for which the amyloid nucleation score worked out at 0.476 ± 0.28.

Consider WAYPRNVQ, for which the amyloid nucleation score worked out at 0.327 ± 0.38.

The substance WCTLFFQCRRPG registered an amyloid nucleation score of 5.554 ± 0.049.

Turning to WCVRELLE, the amyloid nucleation score was -0.077 ± 0.39.

WDIYQVGGTMSLDVFVKV: the amyloid nucleation score is -0.2 ± 0.3.

Substance WEDAVDSSVRFC returned an amyloid nucleation score of -0.211 ± 0.61.

In the case of WEDKVAGSMGAWDDLG, the amyloid nucleation score is 0.791 ± 0.67.

For the substance WEGNEHWKCTENLVLAKTGH, the amyloid nucleation score result was “inactive”.

For WFDIKL, the amyloid nucleation score is -0.367 ± 0.48.

WFHVAAYAFRGTCYHLGGVL showed an amyloid nucleation score of 4.39 ± 0.096.

Consider WFIASLLYISLWFYICSTMS, for which the amyloid nucleation score turned out to be 0.878 ± 0.24.

On to WFKVH, for which the amyloid nucleation score was found to be 0.26 ± 0.8.

Turning to WFVGCHTVRR, the amyloid nucleation score turned out to be 0.84 ± 0.33.

Consider WGLGCMSQSTLHGSLISSVR, for which the amyloid nucleation score was -0.5 ± 0.44.

WGLHYSRYHLHV had an amyloid nucleation score of -0.494 ± 0.27.

WGLSRNSNIGHRVLIVAGNL yielded an amyloid nucleation score of -0.683 ± 0.35.

With WGNVLNLYNR, the amyloid nucleation score was determined as 4.53 ± 0.081.

Substance WGQNNAEAFNYALMWVFRVW gave an amyloid nucleation score of 2.49 ± 0.11.

WGSSFR came in with an amyloid nucleation score of 0.592 ± 0.24.

WGTDISYMGRSGCTLSGCIY came in with an amyloid nucleation score of -1.13 ± 0.55.

For the substance WHCNFMHWVHKR, the amyloid nucleation score came out at 6.383 ± 0.06.

In the case of WILGKFTDKFRSSRHRRNRA, the amyloid nucleation score was determined as 0.787 ± 0.25.

WINPFAQWMNSVQIFK: the amyloid nucleation score came to 0.466 ± 0.12.

The substance WISTTYASLDNPSHKGIVLM registered an amyloid nucleation score of -0.302 ± 0.48.

Regarding WKESGVHRHFHTSIGKDRVL, the amyloid nucleation score result is “inactive”.

With WKFRNN, the amyloid nucleation score entry is “inactive”.

Consider WKKSMKIVNKYAVSLPDVGR, for which the amyloid nucleation score is 0.29 ± 0.51.

In turn, WKMWRVKAVNR displayed an amyloid nucleation score of 0.935 ± 0.35.

With WLCVRNVLMCQW, the amyloid nucleation score was found to be 7.037 ± 0.042.

On to WLFRGSIVKWTPHRPDRYAC, for which the amyloid nucleation score was -0.088 ± 0.46.

Regarding WLIKPVAPLSVYWSVWWSVV, the amyloid nucleation score stood at 0.3 ± 0.55.

With WLLMYPLI, the amyloid nucleation score was -1.04 ± 0.34.

WLLNLERDIFLLTLSGRMIK: the amyloid nucleation score stood at 0.449 ± 0.8.

With WLLNYYRGGVWLGLWTRKE, the amyloid nucleation score was -1.3 ± 0.48.

Substance WLRDYRLWATT showed an amyloid nucleation score of -0.223 ± 0.63.

Take WLVMEATLAFIRYTRGSFSL: the amyloid nucleation score was -0.432 ± 1.1.

Substance WLYALWCDWSA registered an amyloid nucleation score of 3.97 ± 0.061.

For WMNFCPDVGHANGGVPNRLG, the amyloid nucleation score was 0.583 ± 0.37.

Consider WMRFYSYNGIY, for which the amyloid nucleation score was -1.26 ± 1.1.

WMRSIWLSQHFLS yielded an amyloid nucleation score of 0.292 ± 0.41.

Consider WNINRIPFKVRWRAIFHMYH, for which the amyloid nucleation score is -1.25 ± 0.37.

As for WNTISRLCDLWLRVAYGSLV, the amyloid nucleation score is 0.461 ± 0.65.

Substance WPKSAILIHCRVANGLCRFV yielded an amyloid nucleation score of 6.586 ± 0.046.

Take WPVHV: the amyloid nucleation score is -1.38 ± 1.1.

Take WPYGVGLINGWSTMVSYKVL: the amyloid nucleation score turned out to be 0.325 ± 0.8.

The substance WQIGCLADIYSYLPDGNTVG yielded an amyloid nucleation score of -0.389 ± 0.4.

Substance WQKLLIDYSSSTYDEALGT had an amyloid nucleation score of 0.833 ± 0.8.

The substance WRAIALLEARTGSRQ gave an amyloid nucleation score of 1.08 ± 0.14.

For the substance WRLVHCIHTIGYCMPVRLRG, the amyloid nucleation score was 3.25 ± 0.088.

In turn, WRPKPKWFLGGYGWTGERRL returned an amyloid nucleation score of 0.418 ± 0.51.

Regarding WRSLLVLAFHLRLLYVSSMK, the amyloid nucleation score entry is “inactive”.

For the substance WRVGVK, the amyloid nucleation score is 0.312 ± 0.25.

WRYRHELEACWRHHSNSWYG showed an amyloid nucleation score of 3.96 ± 0.052.

WSEISWTIQGCFVRHDALLG came in with an amyloid nucleation score of 0.087 ± 0.56.

WSGLNSNRSVDNPSISTGWS: the amyloid nucleation score was -0.532 ± 0.56.

Regarding WSKLYTFIFLASNKLLTWPC, the amyloid nucleation score entry was “inactive”.

WSLQSQGYRILDGYGV had an amyloid nucleation score of 0.6 ± 0.44.

The substance WSMCFMPVRWSFSGTIYMHK showed an amyloid nucleation score of 0.472 ± 0.56.

WSSHFWMFGSAVSQAWGRGW showed an amyloid nucleation score of 3.17 ± 0.074.

The values are drawn from the supplement of paper PMC12042874.
